According to publication PMC12805100 (2025):

B1: 3xFLAG-WT hTRPA1 [human] / CaM-agarose resin (calmodulin coupled to agarose) [not stated] (parent complex)
chain 1: MKRSLRKMWRPGEKKEPQGVVYEDVPDDTEDFKESLKVVFEGSAYGLQNFNKQKKLKRCDDMDTFFLHYAAAEGQIELMEKITRDSSLEVLHEMDDYGNTPLHCAVEKNQIESVKFLLSRGANPNLRNFNMMAPLHIAVQGMNNEVMKVLLEHRTIDVNLEGENGNTAVIIACTTNNSEALQILLKKGAKPCKSNKWGCFPIHQAAFSGSKECMEIILRFGEEHGYSRQLHINFMNNGKATPLHLAVQNGDLEMIKMCLDNGAQIDPVEKGRCTAIHFAATQGATEIVKLMISSYSGSVDIVNTTDGCHETMLHRASLFDHHELADYLISVGADINKIDSEGRSPLILATASASWNIVNLLLSKGAQVDIKDNFGRNFLHLTVQQPYGLKNLRPEFMQMQQIKELVMDEDNDGCTPLHYACRQGGPGSVNNLLGFNVSIHSKSKDKKSPLHFAASYGRINTCQRLLQDISDTRLLNEGDLHGMTPLHLAAKNGHDKVVQLLLKKGALFLSDHNGWTALHHASMGGYTQTMKVILDTNLKCTDRLDEDGNTALHFAAREGHAKAVALLLSHNADIVLNKQQASFLHLALHNKRKEVVLTIIRSKRWDECLKIFSHNSPGNKCPITEMIEYLPECMKVLLDFCMLHSTEDKSCRDYYIEYNFKYLQCPLEFTKKTPTQDVIYEPLTALNAMVQNNRIELLNHPVCKEYLLMKWLAYGFRAHMMNLGSYCLGLIPMTILVVNIKPGMAFNSTGIINETSDHSEILDTTNSYLIKTCMILVFLSSIFGYCKEAGQIFQQKRNYFMDISNVLEWIIYTTGIIFVLPLFVEIPAHLQWQCGAIAVYFYWMNFLLYLQRFENCGIFIVMLEVILKTLLRSTVVFIFLLLAFGLSFYILLNLQDPFSSPLLSIIQTFSMMLGDINYRESFLEPYLRNELAHPVLSFAQLVSFTIFVPIVLMNLLIGLAVGDIAEVQKHASLKRIAMQVELHTSLEKKLPLWFLRKVDQKSTIVYPNKPRSGGMLFHIFCFLFCTGEIRQEIPNADKSLEMEILKQKYRLKDLTFLLEKQHELIKLIIQKMEIISETEDDDSHCSFQDRFKKEQMEQRNSRWNTVLRAVKAKTHHLEP
chain 2: not shown

Variants of: B1
Test: CaM-agarose pulldown, quantified immunoblot; 2 mM Ca2+; lysates of HEK293T cells; n = 3; read off a plot

| response | Variant |
| --- | --- |
| ~0.36 normalized pulldown (relative to WT hTRPA1 0.1 μM Ca2+ average) | chain 1 W1103A |
| ~0.05 normalized pulldown (relative to WT hTRPA1 0.1 μM Ca2+ average) | chain 1 K989S, chain 1 R996S, chain 1 K997S, chain 1 K1001S, chain 1 W1103A |
